# From patent publication US20240270821A1, “GIP/GLP1/GCG TRI-RECEPTOR AGONISTS AND USES THEREOF” (priority 2023, published 2024)
# Numbering of substitutions follows the chain as printed. Starred links: 1 amine or outer side, 2 acyl side, 3 side chain; linkers in the order of their positions; H or OH if unused. Non-standard residues stand in square brackets, D forms with d. Groups on a side chain read outwards from the residue. No end group written: not given here. *: point of attachment. C18 diacid = O=C(O)CCCCCCCCCCCCCCCCC(=O)*; γGlu = O=C(O)[C@H](CCC(=O)[*:2])N[*:1]; αMe4Pal = C[C@](N)(Cc1ccncc1)C(=O)O; 4Pal = N[C@@H](Cc1ccncc1)C(=O)O; αMeL = CC(C)C[C@](C)(N)C(=O)O; Orn = NCCC[C@H](N)C(=O)O; Aib = CC(C)(N)C(=O)O
# B1: Example 6 (peptide)
# chain: YXQGTFTSDFSKXLDKKAQXAFIEYLLAGGPSSGEPPPSGG
# modifications: Aib, αMeL; Lys acylated; C-terminal amide; synthetic construct; SITE 2: note = 2-Aminoisobutyric Acid; SITE 13: note = alpha-methyl-leucine; SITE 17: note = Lysine is chemically modified through conjugation of the epsilon-amino group of the Lysine side chain with (2-[2-(2-Amino-ethoxy)-ethoxy]-acetyl)-(gamma-Glu)-CO-(CH2) 18-CO2H; SITE 20: n
# B2: Example 1027 (peptide)
# chain: YXQGTFTSDXSQXLDXKAQXAFIEXLIEGGPSSGEPPPSGSEE
# modifications: Aib, 4Pal, αMeL, Orn, Me4Pal, αMeY; lipidated Lys; C-terminal amide; synthetic construct; SITE 2: note = 2-Aminoisobutyric Acid; SITE 10: note = 3-(4-Pyridyl)-L-alanine; SITE 13: note = alpha-methyl-leucine; SITE 16: note = L-ornithine; SITE 17: note = Lysine is chemically modified through conjugation of the epsilon-amino group of the Lysine side chain with (gamma-Gl)
# B3: Example 1037 (peptide)
# chain: B2 chain with X16K, X25Y, I27L, E28A, E35A
# modifications: AEEA-γGlu-C18 diacid on Lys; non-natural residues; amide; synthetic construct; SITE 2: note = 2-Aminoisobutyric Acid; SITE 10: note = 3-(4-Pyridyl)-L-alanine; SITE 13: note = alpha-methyl-leucine; SITE 17: note = Lysine is chemically modified through conjugation of the epsilon-amino group of the Lysine side chain with (2-[2-(2-Amino-ethoxy)-ethoxy]-acetyl)
# B4: Example 1029 (peptide)
# chain: B2 chain with X16K, X25Y, E28A, E35A
# modifications: non-natural residues; AEEA-γGlu-C18 diacid on Lys; amide; synthetic construct; SITE 2: note = 2-Aminoisobutyric Acid; SITE 10: note = 3-(4-Pyridyl)-L-alanine; SITE 13: note = alpha-methyl-leucine; SITE 17: note = Lysine is chemically modified through conjugation of the epsilon-amino group of the Lysine side chain with (2-[2-(2-Amino-ethoxy)-ethoxy]-acetyl)
# B5: Example 1030 (peptide)
# chain: B2 chain with X16K, X25Y, E28A, E35A
# modifications: synthetic construct; SITE 2: note = 2-Aminoisobutyric Acid; SITE 10: note = 3-(4-Pyridyl)-L-alanine; SITE 13: note = alpha-methyl-leucine; SITE 17: note = Lysine is chemically modified through conjugation of the epsilon-amino group of the Lysine side chain with (Glu)-(gamma-Glu)-CO-(CH2)16-CO2H; SIT
# B6: Example 1035 (peptide)
# chain: B2 chain with X25Y, E28A, E35A
# modifications: non-natural residues; acylated Lys; C-terminal amide; synthetic construct; SITE 2: note = 2-Aminoisobutyric Acid; SITE 10: note = 3-(4-Pyridyl)-L-alanine; SITE 13: note = alpha-methyl-leucine; SITE 16: note = L-ornithine; SITE 17: note = Lysine is chemically modified through conjugation of the epsilon-amino group of the Lysine side chain with (gamma-Gl)
# B7: Example 1036 (peptide)
# chain: B2 chain with X16K, X25Y, I27L, E28A, E35A
# modifications: synthetic construct; SITE 2: note = 2-Aminoisobutyric Acid; SITE 10: note = 3-(4-Pyridyl)-L-alanine; SITE 13: note = alpha-methyl-leucine; SITE 17: note = Lysine is chemically modified through conjugation of the epsilon-amino group of the Lysine side chain with (gamma-Glu)2-CO-(CH2)16-CO2H; SITE 20:
# B8: Example 1028 (peptide)
# chain: B2 chain
# modifications: non-natural residues; lysine acylated with C18 diacid; C-terminal amide; synthetic construct; SITE 2: note = 2-Aminoisobutyric Acid; SITE 10: note = 3-(4-Pyridyl)-L-alanine; SITE 13: note = alpha-methyl-leucine; SITE 16: note = L-ornithine; SITE 17: note = Lysine is chemically modified through conjugation of the epsilon-amino group of the Lysine side chain with (gamma-Gl)
# B9: Example 1034 (peptide)
# chain: B2 chain with X25Y, E28A, E35A
# modifications: non-natural residues; lipidated Lys; C-terminal amide; synthetic construct; SITE 2: note = 2-Aminoisobutyric Acid; SITE 10: note = 3-(4-Pyridyl)-L-alanine; SITE 13: note = alpha-methyl-leucine; SITE 16: note = L-ornithine; SITE 17: note = Lysine is chemically modified through conjugation of the epsilon-amino group of the Lysine side chain with D-Glutami
# B10: Example 1031 (peptide)
# chain: B2 chain with X25Y, E28A, E35A
# modifications: non-natural residues; C18 diacid-(γ-Glu)2 acyl on Lys; C-terminal amide; synthetic construct; SITE 2: note = 2-Aminoisobutyric Acid; SITE 10: note = 3-(4-Pyridyl)-L-alanine; SITE 13: note = alpha-methyl-leucine; SITE 16: note = L-ornithine; SITE 17: note = Lysine is chemically modified through conjugation of the epsilon-amino group of the Lysine side chain with (gamma-Gl)
# B11: Example 1033 (peptide)
# chain: B2 chain with X25Y, E28A, E35A
# modifications: Aib, 4Pal, Me4Pal, Orn, alpha-methyl-Leu, lipidated Lys, amide; synthetic construct; SITE 2: note = 2-Aminoisobutyric Acid; SITE 10: note = 3-(4-Pyridyl)-L-alanine; SITE 13: note = alpha-methyl-leucine; SITE 16: note = L-ornithine; SITE 17: note = Lysine is chemically modified through conjugation of the epsilon-amino group of the Lysine side chain with (Glu)2-(g)
# B12: Example 1025 (peptide)
# chain: YXQGTFTSDXSQXLDKKAQXAFIEYLIEAGPSSGAPPPSGSE
# modifications: synthetic construct; SITE 2: note = 2-Aminoisobutyric Acid; SITE 10: note = 3-(4-Pyridyl)-L-alanine; SITE 13: note = alpha-methyl-leucine; SITE 17: note = Lysine is chemically modified through conjugation of the epsilon-amino group of the Lysine side chain with (gamma-Glu)2-CO-(CH2)16-CO2H; SITE 20:
# Target: human glucagon receptor (human) (UniProt P47871)
# Test: cell-based or functional assay
# human glucagon receptor (human), sequence (P47871 26-477): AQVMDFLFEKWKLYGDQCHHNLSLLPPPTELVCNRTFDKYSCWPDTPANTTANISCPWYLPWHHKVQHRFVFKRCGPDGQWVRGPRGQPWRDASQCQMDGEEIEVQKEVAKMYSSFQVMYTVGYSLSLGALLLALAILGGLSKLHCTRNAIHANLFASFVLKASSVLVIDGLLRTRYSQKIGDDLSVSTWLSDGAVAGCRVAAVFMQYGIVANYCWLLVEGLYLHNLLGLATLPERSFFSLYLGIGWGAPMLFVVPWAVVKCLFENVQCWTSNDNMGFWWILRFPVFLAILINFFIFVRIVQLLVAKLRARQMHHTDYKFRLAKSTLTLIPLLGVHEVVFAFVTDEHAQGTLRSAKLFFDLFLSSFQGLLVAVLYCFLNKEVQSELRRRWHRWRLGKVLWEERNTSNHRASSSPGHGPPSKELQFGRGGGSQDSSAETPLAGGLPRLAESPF
Binder,"cAMP Rel EC50, nM (1% HSA) [nM]",Relative cAMP EC50 [µM],cAMP Rel EC50 (in the presence of 1% HSA) [µM]
Y[Aib]QGTFTSD[4Pal]SQ[αMeL]LD[Orn]KK([Glu-γGlu-C18 diacid])AQ[αMe4Pal]AFIEYLIAGGPSSGAPPPSGSEE-NH2 [Example 1032],900,,
B1,,0.00689,1.38
B2,1470,0.00499,
B3,291,,
B4,511,,
B5,1830,0.00942,
B6,1380,,
B7,353,0.00205,
B8,3910,0.00577,
B9,1890,,
B10,1200,,
B11,2170,,
B12,625,0.00322,

# Target: T1, human GIP receptor (human) (UniProt P48546)
# T1 sequence (looked up): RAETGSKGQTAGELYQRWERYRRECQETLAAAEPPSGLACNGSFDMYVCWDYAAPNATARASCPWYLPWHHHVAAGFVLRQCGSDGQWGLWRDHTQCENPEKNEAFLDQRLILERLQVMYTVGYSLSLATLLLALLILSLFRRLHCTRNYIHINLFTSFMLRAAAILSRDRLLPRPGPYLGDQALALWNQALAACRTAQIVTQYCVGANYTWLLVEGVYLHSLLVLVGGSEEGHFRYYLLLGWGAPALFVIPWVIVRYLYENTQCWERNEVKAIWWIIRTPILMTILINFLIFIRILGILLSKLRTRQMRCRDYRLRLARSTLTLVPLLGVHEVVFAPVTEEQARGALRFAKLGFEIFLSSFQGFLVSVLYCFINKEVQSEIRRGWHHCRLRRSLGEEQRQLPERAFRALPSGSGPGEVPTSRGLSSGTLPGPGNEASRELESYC
# Test: cell-based or functional assay
Binder,"cAMP Rel EC50, nM (1% HSA) [nM]",Relative cAMP EC50 [µM],cAMP Rel EC50 (in the presence of 1% HSA) [µM]
Y[Aib]QGTFTSD[4Pal]SQ[αMeL]LD[Orn]KK([Glu-γGlu-C18 diacid])AQ[αMe4Pal]AFIEYLIAGGPSSGAPPPSGSEE-NH2 [Example 1032],21.9,,
B1,,0.000232,0.0466
B2,58.1,0.000208,
B3,13.7,,
B4,22.3,,
B5,21,0.000122,
B6,16,,
B7,13,0.000114,
B8,157,0.000189,
B9,23,,
B10,17.3,,
B11,23.4,,
B12,31.5,0.00018,

# Target: hGLP-1R (Homo sapiens, UniProt P43220)
# Test: cell-based or functional assay
# hGLP-1R, sequence (P43220 24-463): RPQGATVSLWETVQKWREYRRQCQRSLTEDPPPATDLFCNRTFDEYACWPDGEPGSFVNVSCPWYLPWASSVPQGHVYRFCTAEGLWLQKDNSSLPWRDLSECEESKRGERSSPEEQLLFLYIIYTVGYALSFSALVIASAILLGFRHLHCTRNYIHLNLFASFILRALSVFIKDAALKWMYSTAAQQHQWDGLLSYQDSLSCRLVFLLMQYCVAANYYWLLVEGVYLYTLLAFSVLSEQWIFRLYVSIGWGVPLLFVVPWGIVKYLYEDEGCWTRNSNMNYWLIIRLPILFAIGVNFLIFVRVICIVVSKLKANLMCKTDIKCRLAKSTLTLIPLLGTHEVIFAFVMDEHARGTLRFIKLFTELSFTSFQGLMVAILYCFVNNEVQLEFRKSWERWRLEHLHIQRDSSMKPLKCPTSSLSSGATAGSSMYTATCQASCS
Binder,"cAMP Rel EC50, nM (1% HSA) [nM]",Relative cAMP EC50 [µM],cAMP Rel EC50 (in the presence of 1% HSA) [µM]
Y[Aib]QGTFTSD[4Pal]SQ[αMeL]LD[Orn]KK([Glu-γGlu-C18 diacid])AQ[αMe4Pal]AFIEYLIAGGPSSGAPPPSGSEE-NH2 [Example 1032],148,,
B1,,0.00195,0.446
B2,252,0.00123,
B3,625,,
B4,170,,
B5,385,0.00172,
B6,167,,
B7,1080,0.00687,
B8,986,0.00134,
B9,317,,
B10,152,,
B11,221,,
B12,352,0.00245,
